Test results taken from publication PMC3136132.

B1: 3'BC1-60 RNA, annealed (structured_RNA)
RNA: AAAAAAGACAAAAUAACAAAAAGACCAAAAAAAAAACAAGGUAACUGGCACACACAACCUUU
B2: 5'BC1-75 RNA, annealed (structured_RNA)
RNA: GGGGUUGGGGAUUUAGCUCAGUGGUAGAGCGCUUGCCUAGCAAGCGCAAGGCCCUGGGUUCGGUCCUCAGCUCU

Columns and labels:
[1] = target: T1, FMRP (UniProt Q06787 1-632); assay: biotin-RNA affinity capture; 2 uM RNA; 50 mM Tris-HCl pH 7.4, 2 mM MgCl2, 150 mM KCl, 1 mM EDTA, 1 mM DTT (Schaeffer buffer without tRNA, supplemented with 125 mM NaCl); SoftLink avidin resin; temper
[2] = target: T1, FMRP; assay: biotin-RNA affinity capture; 2 uM RNA; slightly less than full-length BC1, P=.15; 50 mM Tris-HCl pH 7.4, 2 mM MgCl2, 150 mM KCl, 1 mM EDTA, 1 mM DTT (Schaeffer buffer without tRNA, supplemented with 125 mM NaCl); SoftLink avidin resin; temper

Binder | binding result [1] | binding result [2]
B1 | no binding | 
B2 |  | binds
